{
  "source": "patent US20250059292A1",
  "about": "(JCR PHARMACEUTICALS, published 2025)",
  "binders": {"B1": {"name": "hI2S-mscFv2 (conjugate in which mouse anti-mTfRscFv antibody 2 is bound to the C-terminus of hI2S) (scFv)", "chain": "SETQANSTTDALNVLLIIVDDLRPSLGCYGDKLVRSPNIDQLASHSLLFQNAFAQQAVCAPSRVSFLTGRRPDTTRLYDFNSYWRVHAGNFSTIPQYFKENGYVTMSVGKVFHPGISSNHTDDSPYSWSFPPYHPSSEKYENTKTCRGPDGELHANLLCPVDVLDVPEGTLPDKQSTEQAIQLLEKMKTSASPFFLAVGYHKPHIPFRYPKEFQKLYPLENITLAPDPEVPDGLPPVAYNPWMDIRQREDVQALNISVPYGPIPVDFQRKIRQSYFASVSYLDTQVGRLLSALDDLQLANSTIIAFTSDHGWALGEHGEWAKYSNFDVATHVPLIFYVPGRTASLPEAGEKLFPYLDPFDSASQLMEPGRQSMDLVELVSLFPTLAGLAGLQVPPRCPVPSFHVELCREGKNLLKHFRFRDLEEDPYLPGNPRELIAYSQYPRPSDIPQWNSDKPSLKDIKIMGYSIRTIDYRYTVWVGFNPDEFLANFSDIHAGELYFVDSDPLQDHNMYNDSQGGDLFQLLMPEVQLVESGGGLVQPGNSLTLSCVASGFTFSNYGMHWIRQAPKKGLEWIAMIAYDSSKMNYADTVKGRFTISRDNSKNTLYLEMNSLRSEDTAMYYCAVPTAHYVVDVWGQGVSVTVSSGGGGSGGGGSGGGGSDIQMTQSPASLSASLEEIVTITCQASQDIGNWLAWYQQKPGKSPQLLIAGATSLADGVPSRFSGSRSGTQFSLKISRVQVEDIGIYYCLQAANTPWTFGGGTKLELKR", "notes": "Enzyme-scFv fusion, recombinant from CHO cells"}, "B2": {"name": "mscFv3-GS3-hI2S (conjugate in which hI2S is bound to the C-terminus of mouse anti-mouse transferrin receptor single chain antibody mscFv 3 via the linker of … (scFv)", "chain": "EVQLVESGGGLVQPGNSLTLSCVASGFTFSNYGMHWIRQAPKKGLEWIAMIAYDSSKMNYADTVKGRFTISRDNSKNTLYLEMNSLRSEDTAMYYCAVPTAHYVVDVWGQGVSVTVSSGGGGSGGGGSGGGGSDIQMTQSPASLSASLEEIVTITCQASQDIGNWLAWYQQKPGKSPQLLIYGATSLADGVPSRFSGSRSGTQFSLKISRVQVEDIGIYYCLQAYNTPWTFGGGTKLELKRGGGGSGGGGSGGGGSSETQANSTTDALNVLLIIVDDLRPSLGCYGDKLVRSPNIDQLASHSLLFQNAFAQQAVCAPSRVSFLTGRRPDTTRLYDFNSYWRVHAGNFSTIPQYFKENGYVTMSVGKVFHPGISSNHTDDSPYSWSFPPYHPSSEKYENTKTCRGPDGELHANLLCPVDVLDVPEGTLPDKQSTEQAIQLLEKMKTSASPFFLAVGYHKPHIPFRYPKEFQKLYPLENITLAPDPEVPDGLPPVAYNPWMDIRQREDVQALNISVPYGPIPVDFQRKIRQSYFASVSYLDTQVGRLLSALDDLQLANSTIIAFTSDHGWALGEHGEWAKYSNFDVATHVPLIFYVPGRTASLPEAGEKLFPYLDPFDSASQLMEPGRQSMDLVELVSLFPTLAGLAGLQVPPRCPVPSFHVELCREGKNLLKHFRFRDLEEDPYLPGNPRELIAYSQYPRPSDIPQWNSDKPSLKDIKIMGYSIRTIDYRYTVWVGFNPDEFLANFSDIHAGELYFVDSDPLQDHNMYNDSQGGDLFQLLMP", "notes": "scFv-enzyme fusion, recombinant from CHO cells; also called mscFv 3-hI2S conjugate"}, "B3": {"name": "mscFv2-GS3-hI2S (conjugate in which hI2S is bound to the C-terminus of mouse anti-mTfRscFv antibody 2 via the linker of SEQ ID NO: 4) (scFv)", "chain": "EVQLVESGGGLVQPGNSLTLSCVASGFTFSNYGMHWIRQAPKKGLEWIAMIAYDSSKMNYADTVKGRFTISRDNSKNTLYLEMNSLRSEDTAMYYCAVPTAHYVVDVWGQGVSVTVSSGGGGSGGGGSGGGGSDIQMTQSPASLSASLEEIVTITCQASQDIGNWLAWYQQKPGKSPQLLIAGATSLADGVPSRFSGSRSGTQFSLKISRVQVEDIGIYYCLQAANTPWTFGGGTKLELKRGGGGSGGGGSGGGGSSETQANSTTDALNVLLIIVDDLRPSLGCYGDKLVRSPNIDQLASHSLLFQNAFAQQAVCAPSRVSFLTGRRPDTTRLYDFNSYWRVHAGNFSTIPQYFKENGYVTMSVGKVFHPGISSNHTDDSPYSWSFPPYHPSSEKYENTKTCRGPDGELHANLLCPVDVLDVPEGTLPDKQSTEQAIQLLEKMKTSASPFFLAVGYHKPHIPFRYPKEFQKLYPLENITLAPDPEVPDGLPPVAYNPWMDIRQREDVQALNISVPYGPIPVDFQRKIRQSYFASVSYLDTQVGRLLSALDDLQLANSTIIAFTSDHGWALGEHGEWAKYSNFDVATHVPLIFYVPGRTASLPEAGEKLFPYLDPFDSASQLMEPGRQSMDLVELVSLFPTLAGLAGLQVPPRCPVPSFHVELCREGKNLLKHFRFRDLEEDPYLPGNPRELIAYSQYPRPSDIPQWNSDKPSLKDIKIMGYSIRTIDYRYTVWVGFNPDEFLANFSDIHAGELYFVDSDPLQDHNMYNDSQGGDLFQLLMP", "notes": "scFv-enzyme fusion, recombinant from CHO cells; also called mouse anti-mTfRscFv antibody 2-hI2S conjugate"}, "B4": {"name": "mscFv-GS3-hI2S (conjugate in which human iduronate-2-sulfatase is bound to the C-terminus of a mouse anti-mouse transferrin receptor single chain antibody via … (scFv)", "chain": "EVQLVESGGGLVQPGNSLTLSCVASGFTFSNYGMHWIRQAPKKGLEWIAMIYYDSSKMNYADTVKGRFTISRDNSKNTLYLEMNSLRSEDTAMYYCAVPTSHYVVDVWGQGVSVTVSSGGGGSGGGGSGGGGSDIQMTQSPASLSASLEEIVTITCQASQDIGNWLAWYQQKPGKSPQLLIYGATSLADGVPSRFSGSRSGTQFSLKISRVQVEDIGIYYCLQAYNTPWTFGGGTKLELKRGGGGSGGGGSGGGGSSETQANSTTDALNVLLIIVDDLRPSLGCYGDKLVRSPNIDQLASHSLLFQNAFAQQAVCAPSRVSFLTGRRPDTTRLYDFNSYWRVHAGNFSTIPQYFKENGYVTMSVGKVFHPGISSNHTDDSPYSWSFPPYHPSSEKYENTKTCRGPDGELHANLLCPVDVLDVPEGTLPDKQSTEQAIQLLEKMKTSASPFFLAVGYHKPHIPFRYPKEFQKLYPLENITLAPDPEVPDGLPPVAYNPWMDIRQREDVQALNISVPYGPIPVDFQRKIRQSYFASVSYLDTQVGRLLSALDDLQLANSTIIAFTSDHGWALGEHGEWAKYSNFDVATHVPLIFYVPGRTASLPEAGEKLFPYLDPFDSASQLMEPGRQSMDLVELVSLFPTLAGLAGLQVPPRCPVPSFHVELCREGKNLLKHFRFRDLEEDPYLPGNPRELIAYSQYPRPSDIPQWNSDKPSLKDIKIMGYSIRTIDYRYTVWVGFNPDEFLANFSDIHAGELYFVDSDPLQDHNMYNDSQGGDLFQLLMP", "notes": "scFv-enzyme fusion, expressed as a recombinant protein in CHO cells and collected from the culture supernatant; also called mouse anti-mTfRscFv antibody-hI2S conjugate"}},
  "key": {"[1]": {"target": "T1, mouse transferrin receptor extracellular domain (position 87 to position 763 of SEQ ID NO: 39) (mouse, UniProt Q62351 87-763)", "T1 construct": "Coated on the ELISA plate at 10 ug/mL; also called mouse TfR; mTfR", "T1 sequence (Q62351 87-763)": "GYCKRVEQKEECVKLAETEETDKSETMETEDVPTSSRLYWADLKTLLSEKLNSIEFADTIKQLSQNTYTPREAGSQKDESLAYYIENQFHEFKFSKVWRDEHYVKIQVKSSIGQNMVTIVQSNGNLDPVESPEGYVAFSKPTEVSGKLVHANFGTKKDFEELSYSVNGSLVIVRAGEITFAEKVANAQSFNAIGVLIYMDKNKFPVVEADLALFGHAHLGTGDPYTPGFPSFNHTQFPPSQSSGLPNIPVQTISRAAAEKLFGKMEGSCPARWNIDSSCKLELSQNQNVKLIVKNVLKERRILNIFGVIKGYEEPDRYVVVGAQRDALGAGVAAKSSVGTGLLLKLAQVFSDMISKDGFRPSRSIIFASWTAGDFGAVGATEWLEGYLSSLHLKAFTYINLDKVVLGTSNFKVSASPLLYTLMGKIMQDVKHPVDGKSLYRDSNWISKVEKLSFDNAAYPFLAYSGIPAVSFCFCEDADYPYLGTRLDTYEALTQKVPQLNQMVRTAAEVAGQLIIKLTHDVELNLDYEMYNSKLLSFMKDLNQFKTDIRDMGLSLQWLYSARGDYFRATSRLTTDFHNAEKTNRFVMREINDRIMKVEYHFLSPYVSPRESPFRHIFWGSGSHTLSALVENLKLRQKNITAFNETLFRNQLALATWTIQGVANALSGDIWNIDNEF", "assay": "ELISA: mouse TfR extracellular domain coated on the plate, detected with anti-hI2S monoclonal antibody and HRP-labeled secondary antibody", "experimental": "The binding activities of the obtained three types of proteins, mscFv-GS3-hI2S, mscFv2-GS3-hI2S, and hI2S-mscFv2, to the mouse TfR receptor were measured by the ELISA method. The ELISA method was generally performed in the following manner. To each well of a 96-well microtiter plate (Nunc), 100 μL of a mouse transferrin receptor extracellular domain having an amino acid sequence from position 87 to position 763 of an amino acid sequence represented by SEQ ID NO: 39 diluted with 0.05 M bicarbonate buffer (pH 9.6) to a concentration of 10 μg/mL was added, and the plate was allowed to stand at room temperature for at least 1 hour to adsorb the antibody to the plate. Then, 300 μL of TBS containing 1% BSA and 0.05% Tween20 was added to each well, and the plate was allowed to stand at room temperature for 1 hour. Each well was washed three times with TBS containing 0.05% Tween20 (TBS-T), followed by dilution with TBS containing 0.1% BSA and 0.05% Tween20 to 300, 100, 33.33, 11.11, 3.70, 1.23, 0.41, or 0.14 nM for mscFv-GS3-hI2S, 600, 200, 66.67, 22.22, 7.41, 2.47, 0.82, or 0.27 nM for mscFv2-GS3-hI2S, and 1200, 400, 133.33, 44.44, 14.81, 4.94, 1.65, or 0.55 nM for hI2S-mscFv2, and 100 μL of each thereof was added to each well. The plate was allowed to stand at room temperature for at least 1 hour. After the plate was washed three times with TBS-T, anti-hI2S monoclonal antibodies were diluted to 0.5 μg/mL with TBS containing 0.1% BSA and 0.05% Tween20, 100 μL thereof was added to each well, and the plate was allowed to stand at room temperature for at least 1 hour. The plate was washed three times with the TBS-T, then 100 μL of an HRP-labeled anti-human IgG polyclonal antibody (Bethyl) solution diluted to 50 ng/mL with TBS containing 0.1% BSA and 0.05% Tween20 was added to each well, and the plate was allowed to stand at room temperature for at least 1 hour. […] Then, 100 μL of a stop solution (1 N hydrochloride) was added to each well, and the absorbance at 450 nm for each well was measured using a plate reader (SpectraMax iD3, MOLECULAR DEVICES)."}, "[2]": {"target": "T1, mouse transferrin receptor …", "assay": "ELISA: mouse TfR extracellular domain coated on the plate, detected with anti-I2S monoclonal antibody and HRP-labeled secondary antibody", "experimental": "The recombinant proteins of mscFv3-GS3-hI2S obtained by an ordinary method using CHO cells were measured for their binding activity to mouse transferrin receptor by the ELISA method. The ELISA method was generally performed in the following manner. To each well of a 96-well microtiter plate (Nunc), 100 μL of a mouse transferrin receptor extracellular domain having an amino acid sequence from position 87 to position 763 of an amino acid sequence represented by SEQ ID NO: 39 diluted with 0.05 M bicarbonate buffer (pH 9.6) to a concentration of 10 μg/mL was added, and the plate was allowed to stand at room temperature for at least 1 hour to adsorb the antibody to the plate. Then, 300 μL of TBS containing 1% BSA and 0.05% Tween20 was added to each well, and the plate was allowed to stand at room temperature for 1 hour. Each well was washed three times with TBS containing 0.05% Tween20 (TBS-T). Then, a solution containing mscFv3-GS3-hI2S was diluted using TBS containing 0.1% BSA and 0.05% Tween20 to a concentration of mscFv3-GS3-hI2S of 200, 66.7, 22.2, 7.41, 2.47, 0.82, and 0.27 nM, and 100 μL of the diluted solution was added to each well. The plate was allowed to stand at room temperature for at least 1 hour. […] Then, 100 μL of a stop solution (1 N hydrochloride) was added to each well, and the absorbance at 450 nm for each well was measured using a plate reader (MOLECULAR DEVICES)."}},
  "data": [
    {"binder": "B1", "values": [
      {"measurement": "EC50", "setting": "[1]", "result": 96.7, "unit": "nM"}
    ]},
    {"binder": "B2", "values": [
      {"measurement": "EC50", "setting": "[2]", "result": 4.4, "unit": "nM"}
    ]},
    {"binder": "B3", "values": [
      {"measurement": "EC50", "setting": "[1]", "result": 13.2, "unit": "nM"}
    ]},
    {"binder": "B4", "values": [
      {"measurement": "EC50", "setting": "[1]", "result": 2.4, "unit": "nM"}
    ]}
  ]
}
